{
  "source": "paper PMC8611094",
  "biological_target": "T1, DHX36 (UniProt Q9H2U1)",
  "T1 sequence (Q9H2U1 whole entry, looked up)": "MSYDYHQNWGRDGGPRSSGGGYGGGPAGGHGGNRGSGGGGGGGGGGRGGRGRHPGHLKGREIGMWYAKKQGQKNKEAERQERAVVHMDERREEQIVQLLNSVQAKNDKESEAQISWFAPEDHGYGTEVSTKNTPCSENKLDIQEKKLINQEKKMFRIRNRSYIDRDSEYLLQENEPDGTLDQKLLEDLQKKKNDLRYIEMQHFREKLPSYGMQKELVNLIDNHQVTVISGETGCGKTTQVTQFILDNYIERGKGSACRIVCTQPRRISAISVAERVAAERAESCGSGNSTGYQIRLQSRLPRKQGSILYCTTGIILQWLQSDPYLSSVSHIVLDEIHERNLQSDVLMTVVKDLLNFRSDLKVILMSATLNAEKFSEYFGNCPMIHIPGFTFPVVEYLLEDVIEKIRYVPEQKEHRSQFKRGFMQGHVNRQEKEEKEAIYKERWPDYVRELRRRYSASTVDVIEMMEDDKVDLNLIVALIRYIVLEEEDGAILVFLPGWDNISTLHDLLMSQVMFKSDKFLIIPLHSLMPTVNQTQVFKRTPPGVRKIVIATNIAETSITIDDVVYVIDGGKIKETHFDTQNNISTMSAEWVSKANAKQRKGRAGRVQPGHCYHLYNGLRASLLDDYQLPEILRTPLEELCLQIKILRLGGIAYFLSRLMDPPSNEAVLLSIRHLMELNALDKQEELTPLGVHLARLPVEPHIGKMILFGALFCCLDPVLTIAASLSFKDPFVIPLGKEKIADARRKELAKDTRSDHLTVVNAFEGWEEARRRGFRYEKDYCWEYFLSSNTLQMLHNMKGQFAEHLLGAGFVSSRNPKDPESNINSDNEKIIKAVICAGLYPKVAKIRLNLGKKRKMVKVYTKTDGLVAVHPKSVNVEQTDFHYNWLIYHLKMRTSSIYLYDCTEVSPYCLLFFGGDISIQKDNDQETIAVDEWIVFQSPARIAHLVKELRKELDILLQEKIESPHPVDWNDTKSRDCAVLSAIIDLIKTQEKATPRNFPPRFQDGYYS",
  "assay": "ELISA",
  "conditions": "ELISA performed as in Zyner et al. (ref 43); buffer, salt, pH and temperature not given in the material",
  "data": [
    {"sequence": "UGUGGGAGGGGCGGGUCUGGGUGC [NRAS G4]", "values": [
      {"measurement": "Kd", "result": 0.9, "unit": "nM"}
    ]}
  ]
}
